For eight sequences, phosphorylation enrichment and SH2 binding enrichment results are on record in the supplement of paper PMC10065799, “High-throughput profiling of sequence recognition by tyrosine kinases and SH2 domains using bacterial peptide display” (eLife, 2023).

One data set deals with AncSZ. The data set is described as follows: phosphorylation enrichment, bacterial display (enrichment ratio); higher = better substrate or ligand; peptides without Tyr show the background.
Another data set deals with EPHB1 (UniProt P54762). The description is as above.
The target in the next data set is EPHB2 (UniProt P29323). Described as above.
The next data set addresses FGFR1 (UniProt P11362). The description is as above.
Another data set deals with FGFR3 (UniProt P22607). The description is as above.
FGFR3, sequence (P22607 whole entry, looked up): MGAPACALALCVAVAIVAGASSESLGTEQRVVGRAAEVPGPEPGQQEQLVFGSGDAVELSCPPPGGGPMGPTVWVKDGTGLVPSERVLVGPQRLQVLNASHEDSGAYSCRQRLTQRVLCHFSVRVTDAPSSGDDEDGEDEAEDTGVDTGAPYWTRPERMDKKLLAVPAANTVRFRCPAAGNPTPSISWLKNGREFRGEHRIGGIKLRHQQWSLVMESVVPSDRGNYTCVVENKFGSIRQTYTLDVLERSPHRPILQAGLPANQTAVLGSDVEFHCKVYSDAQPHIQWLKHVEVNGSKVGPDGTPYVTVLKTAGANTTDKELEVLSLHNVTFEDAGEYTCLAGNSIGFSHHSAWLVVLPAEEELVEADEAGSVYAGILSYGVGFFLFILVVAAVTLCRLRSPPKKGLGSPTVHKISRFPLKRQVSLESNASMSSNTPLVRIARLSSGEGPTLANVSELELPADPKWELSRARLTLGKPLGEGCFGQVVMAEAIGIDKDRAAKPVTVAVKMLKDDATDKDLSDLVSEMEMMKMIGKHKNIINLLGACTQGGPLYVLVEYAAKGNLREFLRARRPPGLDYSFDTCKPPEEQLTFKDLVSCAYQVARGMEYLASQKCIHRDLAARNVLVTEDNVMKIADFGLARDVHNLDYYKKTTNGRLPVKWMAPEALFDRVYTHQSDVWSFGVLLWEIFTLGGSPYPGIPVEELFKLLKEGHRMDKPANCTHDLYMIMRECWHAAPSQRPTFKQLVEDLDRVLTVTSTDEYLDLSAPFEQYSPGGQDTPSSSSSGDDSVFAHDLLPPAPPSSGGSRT
Another data set has as its system Fer (mouse). The description is as above.
For the next data set, the target named is Fes (UniProt P07332). The description is as above.
Fes, sequence (P07332 whole entry, looked up): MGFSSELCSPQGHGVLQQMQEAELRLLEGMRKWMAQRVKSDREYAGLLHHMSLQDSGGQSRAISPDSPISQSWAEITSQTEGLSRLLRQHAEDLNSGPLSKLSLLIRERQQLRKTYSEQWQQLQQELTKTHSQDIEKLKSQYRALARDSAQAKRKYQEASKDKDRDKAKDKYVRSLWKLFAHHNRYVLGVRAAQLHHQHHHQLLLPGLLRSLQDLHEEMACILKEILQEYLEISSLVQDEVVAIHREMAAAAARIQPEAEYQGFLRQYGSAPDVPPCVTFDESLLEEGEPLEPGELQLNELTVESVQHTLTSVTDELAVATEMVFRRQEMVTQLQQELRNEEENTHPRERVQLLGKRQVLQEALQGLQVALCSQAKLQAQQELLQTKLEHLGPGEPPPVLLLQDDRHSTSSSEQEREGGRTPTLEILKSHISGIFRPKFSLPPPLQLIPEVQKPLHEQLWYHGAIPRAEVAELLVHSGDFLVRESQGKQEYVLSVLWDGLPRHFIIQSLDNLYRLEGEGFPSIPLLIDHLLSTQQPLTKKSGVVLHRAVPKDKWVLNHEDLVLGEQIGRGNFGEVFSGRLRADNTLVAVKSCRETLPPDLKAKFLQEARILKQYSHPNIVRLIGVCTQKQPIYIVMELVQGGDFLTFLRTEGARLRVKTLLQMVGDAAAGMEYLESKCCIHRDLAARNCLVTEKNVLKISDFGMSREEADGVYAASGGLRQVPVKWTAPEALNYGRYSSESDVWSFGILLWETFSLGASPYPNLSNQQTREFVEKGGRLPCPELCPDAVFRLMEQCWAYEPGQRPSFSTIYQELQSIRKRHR
For a further data set, the target named is Fyn (UniProt P06241). Described as above.
Fyn, sequence (P06241 whole entry, looked up): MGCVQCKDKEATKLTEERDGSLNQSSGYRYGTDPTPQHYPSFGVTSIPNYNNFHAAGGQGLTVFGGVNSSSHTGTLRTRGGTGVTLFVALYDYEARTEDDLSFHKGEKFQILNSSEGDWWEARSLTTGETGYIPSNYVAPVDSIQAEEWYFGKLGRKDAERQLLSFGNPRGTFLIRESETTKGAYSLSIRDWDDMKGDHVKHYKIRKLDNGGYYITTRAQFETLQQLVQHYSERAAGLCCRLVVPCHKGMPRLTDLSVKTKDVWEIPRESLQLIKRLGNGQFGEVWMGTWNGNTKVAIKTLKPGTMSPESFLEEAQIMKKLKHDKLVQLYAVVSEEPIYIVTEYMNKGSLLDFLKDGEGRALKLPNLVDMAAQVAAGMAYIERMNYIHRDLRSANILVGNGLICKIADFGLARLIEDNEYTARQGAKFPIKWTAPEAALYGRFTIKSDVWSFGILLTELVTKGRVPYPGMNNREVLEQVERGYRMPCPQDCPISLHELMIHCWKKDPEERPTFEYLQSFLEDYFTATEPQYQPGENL
The next data set deals with Hck (UniProt P08631). Described as above.
Hck, sequence (P08631 whole entry, looked up): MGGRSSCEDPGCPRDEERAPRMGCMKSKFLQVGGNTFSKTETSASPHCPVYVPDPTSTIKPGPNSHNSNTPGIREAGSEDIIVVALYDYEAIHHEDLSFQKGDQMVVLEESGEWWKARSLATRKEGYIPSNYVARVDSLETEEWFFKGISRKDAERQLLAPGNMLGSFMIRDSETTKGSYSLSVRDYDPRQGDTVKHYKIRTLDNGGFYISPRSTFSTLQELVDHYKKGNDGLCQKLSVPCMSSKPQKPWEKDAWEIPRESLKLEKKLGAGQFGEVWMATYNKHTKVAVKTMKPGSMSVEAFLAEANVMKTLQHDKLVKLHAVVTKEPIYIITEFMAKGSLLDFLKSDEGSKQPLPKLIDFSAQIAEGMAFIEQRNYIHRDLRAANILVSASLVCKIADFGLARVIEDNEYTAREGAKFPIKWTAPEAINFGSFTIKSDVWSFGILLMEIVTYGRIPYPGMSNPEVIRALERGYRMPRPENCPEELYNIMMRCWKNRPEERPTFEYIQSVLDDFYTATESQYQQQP
The target in a further data set is Jak2 (UniProt O60674). Described as above.
Jak2, sequence (O60674 whole entry, looked up): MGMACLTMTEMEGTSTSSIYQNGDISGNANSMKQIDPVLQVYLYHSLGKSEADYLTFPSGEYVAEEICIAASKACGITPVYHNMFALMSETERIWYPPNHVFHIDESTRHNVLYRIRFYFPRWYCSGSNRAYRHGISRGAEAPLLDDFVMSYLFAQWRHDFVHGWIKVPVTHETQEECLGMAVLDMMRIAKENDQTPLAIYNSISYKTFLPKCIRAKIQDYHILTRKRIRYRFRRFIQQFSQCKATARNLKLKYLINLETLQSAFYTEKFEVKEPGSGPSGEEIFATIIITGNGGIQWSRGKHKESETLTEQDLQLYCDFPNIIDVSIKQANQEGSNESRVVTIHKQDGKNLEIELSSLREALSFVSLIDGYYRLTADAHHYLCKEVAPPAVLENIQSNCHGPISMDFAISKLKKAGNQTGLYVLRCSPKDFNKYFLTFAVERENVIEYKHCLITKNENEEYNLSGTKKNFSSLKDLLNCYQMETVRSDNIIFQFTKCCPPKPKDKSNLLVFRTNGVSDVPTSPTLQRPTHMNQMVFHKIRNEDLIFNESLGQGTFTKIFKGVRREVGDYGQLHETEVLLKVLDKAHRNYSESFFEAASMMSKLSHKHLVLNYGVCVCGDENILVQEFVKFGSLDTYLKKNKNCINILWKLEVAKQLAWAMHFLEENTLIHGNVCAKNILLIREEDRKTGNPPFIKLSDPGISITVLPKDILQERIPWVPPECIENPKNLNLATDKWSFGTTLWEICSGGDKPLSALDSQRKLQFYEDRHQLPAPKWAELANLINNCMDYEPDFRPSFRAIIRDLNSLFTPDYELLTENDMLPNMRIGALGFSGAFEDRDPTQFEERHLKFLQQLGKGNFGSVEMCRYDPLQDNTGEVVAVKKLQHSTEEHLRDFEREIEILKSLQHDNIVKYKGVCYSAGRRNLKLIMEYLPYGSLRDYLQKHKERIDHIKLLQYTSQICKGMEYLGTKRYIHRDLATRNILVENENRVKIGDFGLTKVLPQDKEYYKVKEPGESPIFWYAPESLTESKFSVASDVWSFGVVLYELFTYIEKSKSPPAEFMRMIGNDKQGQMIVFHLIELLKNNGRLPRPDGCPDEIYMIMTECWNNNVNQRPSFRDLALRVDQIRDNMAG
In the next data set the target is MERTK (UniProt Q12866). Described as above.
The subject of a further data set is c-Abl (mouse). Described as above.
In a further data set the test system is c-Src. The data set is described as above.
The target in a further data set is Grb2 SH2 (UniProt P62993). The data set is described as follows: SH2 binding enrichment of the phosphorylated peptide, bacterial display (enrichment ratio); higher = better substrate or ligand; peptides without Tyr show the background.
Grb2 SH2, sequence (P62993 whole entry, looked up): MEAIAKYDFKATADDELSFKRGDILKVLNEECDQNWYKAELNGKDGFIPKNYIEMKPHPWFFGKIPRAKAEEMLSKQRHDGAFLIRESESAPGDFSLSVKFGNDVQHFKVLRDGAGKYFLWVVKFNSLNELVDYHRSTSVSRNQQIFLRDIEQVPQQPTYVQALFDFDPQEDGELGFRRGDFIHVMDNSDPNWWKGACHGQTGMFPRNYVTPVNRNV
For the next data set, the target named is SHP2-C SH2. Described as above.
The next data set concerns the target c-Src SH2. The description is as above.
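Throughout, for SH2 binding enrichment of the phosphorylated peptide, bacterial display: peptide library displayed on the E. coli surface as eCPX fusions, selected cells deep-sequenced, score is each peptide's frequency after selection divided by its frequency in the input.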
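Throughout, for phosphorylation enrichment, bacterial display: 11-residue human phosphosite peptides and single-mutation variants displayed on the E. coli surface, counted by deep sequencing, each peptide's frequency after selection divided by its frequency in the unselected input library; frequency after pTyr selection over input frequency; kinase dosed for 20-30% of maximal phosphorylation in three min.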

FGFR1, sequence (P11362 whole entry, looked up): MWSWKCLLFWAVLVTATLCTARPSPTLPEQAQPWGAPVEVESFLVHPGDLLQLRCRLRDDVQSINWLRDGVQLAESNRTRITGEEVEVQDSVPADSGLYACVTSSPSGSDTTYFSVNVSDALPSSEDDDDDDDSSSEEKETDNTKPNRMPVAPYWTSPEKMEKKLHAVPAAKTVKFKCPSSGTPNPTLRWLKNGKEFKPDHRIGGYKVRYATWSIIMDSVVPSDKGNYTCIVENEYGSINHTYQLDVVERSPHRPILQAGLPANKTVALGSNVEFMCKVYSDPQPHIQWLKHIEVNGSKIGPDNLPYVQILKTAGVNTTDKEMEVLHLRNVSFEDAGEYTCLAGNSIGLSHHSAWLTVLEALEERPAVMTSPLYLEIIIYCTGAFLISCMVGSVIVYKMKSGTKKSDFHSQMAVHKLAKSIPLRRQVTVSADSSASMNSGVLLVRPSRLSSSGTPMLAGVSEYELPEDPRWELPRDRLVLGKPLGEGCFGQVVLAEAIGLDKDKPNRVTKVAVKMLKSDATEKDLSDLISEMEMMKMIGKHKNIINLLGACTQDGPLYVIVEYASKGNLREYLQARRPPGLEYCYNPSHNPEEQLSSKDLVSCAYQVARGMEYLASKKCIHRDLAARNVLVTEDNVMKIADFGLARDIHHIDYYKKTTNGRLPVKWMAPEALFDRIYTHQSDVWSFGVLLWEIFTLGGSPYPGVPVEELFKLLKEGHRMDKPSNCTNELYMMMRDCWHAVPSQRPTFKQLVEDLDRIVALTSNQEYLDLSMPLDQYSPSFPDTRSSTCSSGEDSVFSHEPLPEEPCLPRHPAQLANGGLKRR

Take SSFDIYHLSRE [KIR3DL2_Y253_YF]: the phosphorylation enrichment in the data set with AncSZ amounted to 1.12; with EPHB1 it was 0.975; with EPHB2, 0.762; with FGFR1, 1.44; in the data set with FGFR3, 1.29; in the data set on Fer (mouse), 0.788. Also, the phosphorylation enrichment with Fes was determined as 1.02; in the data set with Fyn it was 12.1; with Hck, 9.84; with Jak2, 0.817; with MERTK it was 2.6; in the data set with c-Abl (mouse), 0.807. In addition, the phosphorylation enrichment in the data set on c-Src was 7.22. The SH2 binding enrichment with Grb2 SH2 was 0.776; with SHP2-C SH2 it was 0.694; in the data set with c-Src SH2, 0.608.

Consider SSKILYHIIKG [CDH17_Y489], for which the phosphorylation enrichment was determined as 0.565 in the data set on AncSZ; 0.395 in the data set with EPHB1; 0.529 in the data set with EPHB2; 1.22 with FGFR1; 0.923 in the data set with FGFR3; 0.383 in the data set on Fer (mouse). The phosphorylation enrichment in the data set with Fes was determined as 0.798; with Fyn, 0.45; with Hck it was 0.655; with Jak2, 0.63; in the data set with MERTK, 1.12; in the data set on c-Abl (mouse), 0.438. Moreover, in the data set on c-Src, the phosphorylation enrichment was found to be 0.453. In addition, the SH2 binding enrichment with Grb2 SH2 came to 0.958; with SHP2-C SH2, 3.78; with c-Src SH2, 6.59.

For SSLMKYQQNVS [EGFEM1P_Y160_P157L], the phosphorylation enrichment amounted to 0.491 with AncSZ; 0.416 with EPHB1; 0.46 in the data set with EPHB2; 0.321 with FGFR1; 0.536 in the data set with FGFR3; 0.324 in the data set with Fer (mouse). The phosphorylation enrichment with Fes turned out to be 0.571; with Fyn, 0.386; with Hck, 0.426; with Jak2, 0.422; with MERTK, 0.343; with c-Abl (mouse) it was 0.374. Moreover, the phosphorylation enrichment with c-Src amounted to 0.363. Moreover, the results for the SH2 binding enrichment with Grb2 SH2, with SHP2-C SH2 and with c-Src SH2 were 0.783, 0.723 and 0.398, respectively.

For the sequence SSPVPYLSPET [TJP1_Y931], the phosphorylation enrichment was found to be 0.789 in the data set on AncSZ; 0.442 with EPHB1; 0.502 with EPHB2; 0.482 with FGFR1; 0.627 with FGFR3; 0.453 in the data set on Fer (mouse). For the same sequence, the phosphorylation enrichment with Fes came out at 0.835; with Fyn, 0.541; in the data set with Hck it was 0.445; with Jak2, 0.719; in the data set with MERTK it was 0.409; in the data set with c-Abl (mouse), 0.646. Moreover, the phosphorylation enrichment with c-Src was 0.422. Also, the figures for the SH2 binding enrichment with Grb2 SH2, in the data set with SHP2-C SH2 and with c-Src SH2 were 0.851, 0.66 and 0.507, respectively.

With SSREEYFIGGG [GYPC_Y126_K124E], the phosphorylation enrichment in the data set on AncSZ came out at 1.05; in the data set with EPHB1, 0.457; with EPHB2, 0.44; with FGFR1, 0.562; in the data set with FGFR3 it was 1.94; in the data set on Fer (mouse), 0.486. The phosphorylation enrichment came to 0.909 with Fes; 0.574 with Fyn; 0.474 with Hck; 0.894 with Jak2; 0.471 in the data set with MERTK; 0.71 in the data set on c-Abl (mouse). Further, the phosphorylation enrichment in the data set with c-Src amounted to 0.655. Moreover, the SH2 binding enrichment with Grb2 SH2 came to 0.836; with SHP2-C SH2 it was 0.895; with c-Src SH2 it was 0.486.

Consider SSYDTYHLSRE [KIR3DL2_Y253_I252T], for which the phosphorylation enrichment with AncSZ came out at 0.709; with EPHB1, 0.451; in the data set with EPHB2, 0.841; with FGFR1, 0.6; with FGFR3, 0.569; in the data set on Fer (mouse), 0.457. The phosphorylation enrichment amounted to 0.713 with Fes; 6.54 in the data set with Fyn; 4.59 with Hck; 0.527 with Jak2; 0.583 with MERTK; 0.657 with c-Abl (mouse). In addition, the phosphorylation enrichment in the data set with c-Src turned out to be 3.69. Further, the SH2 binding enrichment amounted to 0.685 with Grb2 SH2, 0.529 with SHP2-C SH2 and 0.632 in the data set with c-Src SH2.

As to SSYPDYLAAVD [GLB1_Y154_D151Y], the phosphorylation enrichment in the data set on AncSZ is 1.36; in the data set with EPHB1, 0.518; with EPHB2, 0.554; with FGFR1, 0.647; in the data set with FGFR3, 0.746; in the data set with Fer (mouse), 0.495. Besides, the phosphorylation enrichment in the data set with Fes amounted to 1.05; with Fyn, 0.495; with Hck it was 0.515; with Jak2, 0.994; with MERTK it was 0.415; with c-Abl (mouse), 0.653. In the data set with c-Src, the phosphorylation enrichment came out at 0.451. For the same sequence, the values for the SH2 binding enrichment with Grb2 SH2, in the data set with SHP2-C SH2 and in the data set with c-Src SH2 were 0.815, 0.473 and 0.498, respectively.

In the case of SSYSRYIMMPN [LEF1_Y114_G113R], the phosphorylation enrichment with AncSZ was found to be 0.654; in the data set with EPHB1, 1.9; with EPHB2, 1.84; with FGFR1, 1.79; in the data set with FGFR3, 1.3; in the data set on Fer (mouse), 0.552. Moreover, the phosphorylation enrichment amounted to 0.637 with Fes; 0.542 in the data set with Fyn; 0.488 with Hck; 2.35 in the data set with Jak2; 3.9 with MERTK; 0.405 in the data set with c-Abl (mouse). The phosphorylation enrichment in the data set on c-Src came to 0.518. For the same sequence, the SH2 binding enrichment was 0.665 in the data set with Grb2 SH2, 1.56 with SHP2-C SH2 and 1.32 with c-Src SH2.
